T1: recombinant human PLVAP51-442 protein (extracellular domain, His tag removed by thrombin) (human, UniProt Q9BX97 51-442)
T1 construct: also called recombinant PLVAP protein; recombinant PLVAP
T1 sequence: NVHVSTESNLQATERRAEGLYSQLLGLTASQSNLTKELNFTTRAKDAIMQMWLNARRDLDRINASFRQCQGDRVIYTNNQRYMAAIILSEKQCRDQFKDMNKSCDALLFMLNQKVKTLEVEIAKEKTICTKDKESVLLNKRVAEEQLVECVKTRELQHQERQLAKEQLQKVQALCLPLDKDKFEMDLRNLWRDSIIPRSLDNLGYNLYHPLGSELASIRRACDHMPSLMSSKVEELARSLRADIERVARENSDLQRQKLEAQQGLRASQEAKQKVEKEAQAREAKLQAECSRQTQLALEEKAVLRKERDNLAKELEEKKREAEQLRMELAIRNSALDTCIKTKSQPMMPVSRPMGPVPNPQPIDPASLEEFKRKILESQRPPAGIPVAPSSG

T2: peptide encompassing amino acids 378 to 404 of human PLVAP, expressed by an E. coli clone of the Novatope … (human)
T2 peptide: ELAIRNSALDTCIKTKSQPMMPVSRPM

T3: His-tagged human CEACAM6 (human, UniProt P40199 35-320, limits assumed)
T3 construct: also called human CEACAM6 protein unrelated to PLVAP (lane 4); not shown: His tag
T3 sequence (looked up): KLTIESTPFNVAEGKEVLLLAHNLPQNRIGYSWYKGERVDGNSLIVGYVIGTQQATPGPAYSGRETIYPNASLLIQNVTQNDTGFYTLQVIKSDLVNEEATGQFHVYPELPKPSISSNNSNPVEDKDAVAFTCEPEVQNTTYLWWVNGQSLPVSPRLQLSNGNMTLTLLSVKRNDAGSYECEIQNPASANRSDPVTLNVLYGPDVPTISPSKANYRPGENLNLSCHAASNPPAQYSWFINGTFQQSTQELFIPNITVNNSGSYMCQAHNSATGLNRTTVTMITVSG

T4: His-tagged human PLVAP51-292 (human, UniProt Q9BX97 51-292)
T4 construct: also called N-terminal portion of the extracellular domain; not shown: His tag and vector residues of pET-15b
T4 sequence: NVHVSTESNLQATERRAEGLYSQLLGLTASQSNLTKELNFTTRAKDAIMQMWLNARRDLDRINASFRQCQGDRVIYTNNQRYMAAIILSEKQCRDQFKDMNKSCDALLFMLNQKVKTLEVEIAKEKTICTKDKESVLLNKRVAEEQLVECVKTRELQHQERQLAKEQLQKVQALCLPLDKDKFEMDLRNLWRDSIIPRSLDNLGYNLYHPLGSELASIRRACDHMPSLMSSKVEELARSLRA


Key:
[1] = biological target: T1, recombinant human PLVAP51-442 protein …; assay: ANTQ300 quartz crystal microbalance
[2] = biological target: T2, peptide encompassing amino acids 378 to …; assay: colony blot of Novatope fragment library
Procedure: PCR was performed using the following thermal cycle: 94° C. for 5 min, followed by 35 cycles of 94° C. for 30 s, 56° C. for 30 s and 72° C. for 60 s. DNA was purified with the Qiaquick PCR purification kit (Qiagen, Surrey, UK) and then used in the construction of a PLVAP Novatope library according to the manufacturer's instructions (Novagen, Merck Biosciences Ltd., Beeston, UK). Briefly, purified PCR product was digested with DNAse I in the presence of Mn²⁺ and fragments between 50-150 base pairs (bp) were gel purified using a gel extraction kit (Qiagen). The DNA fragments were end-filled using T4 DNA polymerase and Tth polymerase to add a single dA residue to each 3′ end and then ligated into the pScreen 1b(+)T-vector (Novagen), which is designed to express small inserts as a carboxy-terminal fusion to the T7 bacterial phage gene 10 capsid protein. The library was transformed into NovaBlue (DE3) cells and plated onto Luria-Bertani (LB) media plates containing carbenicillin (50 μg/ml) and tetracycline (12.5 μg/m). The resulting human PLVAP cDNA library was screened (approximately 10⁴ colonies for each antibody) using the method described in the Novatope manual: Colonies expressing PLVAP fragments were transferred to nitrocellulose filters by contact with the colony for 1 min. Bacterial colonies on the filters were lysed by incubating in a sealed chloroform vapor chamber for 15 min. […]

[3] = biological target: T1, recombinant human PLVAP51-442 protein …; assay: competition ELISA on coated recombinant PLVAP; competitor biotinylated murine KFCC-GY5
Procedure: (§1) The binding of KFCC-GY4 and KFCC-GY5 human antibody variants to recombinant PLVAP was assessed in a competition ELISA. Either a dilution series of variant or control antibody from 30 μg/m to 0.014 μg/m (final concentration) was premixed with a constant concentration of biotinylated murine KFCC-GY4 (0.3 μg/ml, final concentration) or a dilution series of variant or control antibody from 10 μg/m to 0.004 μg/ml (final concentration) was premixed with a constant concentration of biotinylated murine KFCC-GY5 (0.1 μg/ml, final concentration) before incubating for 1 hour at room temperature on a Nunc Immuno MaxiSorp 96 well flat bottom microtitre plate (Fisher Catalogue No. DIS-971-030J) precoated with 1 μg/m recombinant “protein P” diluted in PBS. The binding of the biotinylated mAb was determined by detection with streptavidin-HRP and TMB substrate. After stopping the reaction with 3M HCl, absorbance was measured at 450 nm on a Dynex Technologies MRX TC II plate reader and the binding curves of the test antibodies compared against the mouse reference standard.
Similarly, the four lead variants of IgG4-GY5 and murine KFCC-GY5 antibodies have very similar binding profiles (FIG. 49). All of the lead variants shown are within two-fold of the original murine monoclonal antibody.

[4] = biological target: T1, recombinant human PLVAP51-442 protein …; assay: competition ELISA on coated recombinant PLVAP; competitor biotinylated murine KFCC-GY5 at 0.1 µg/ml
Procedure: (§2) The binding of chimeric KFCC-GY4 and KFCC-GY5 antibodies to recombinant PLVAP protein was assessed in a competition ELISA. Either a dilution series of chimeric or control antibody from 30 μg/ml to 0.014 μg/m (final concentration) was premixed with a constant concentration of biotinylated murine KFCC-GY4 (0.3 μg/ml, final concentration) or a dilution series of chimeric or control antibody from 10 μg/ml to 0.004 μg/m (final concentration) was premixed with a constant concentration of biotinylated murine KFCC-GY5 (0.1 μg/ml, final concentration) before incubating for 1 hour at room temperature on a Nunc Immuno MaxiSorp 96 well flat bottom microtitre plate (Fisher Catalogue No. DIS-971-030J) precoated with 1 μg/ml recombinant PLVAP protein diluted in PBS. The binding of the biotinylated mAb was determined by detection with streptavidin-HRP and TMB substrate.
(§3) Therefore, the correct variable region sequences for the parent murine monoclonal antibodies were identified and cloned.

His-tagged human CEACAM6 = biological target: T3, His-tagged human CEACAM6; assay: immunoblot of total protein extract of E. coli expressing the His-tagged protein
From the text: (§4) Molecular weight protein standards are resolved in Lane M.

[5] = biological target: T4, His-tagged human PLVAP51-292; assay: as above
From the text: as §4

[6] = biological target: T1, recombinant human PLVAP51-442 protein …; assay: Biacore T-100
[7] = biological target: T1, recombinant human PLVAP51-442 protein …; assay: competition ELISA on coated recombinant PLVAP; competitor biotinylated murine KFCC-GY4
Procedure: as §1
The five lead variants of IgG4-GY4 and murine KFCC-GY4 antibodies have very similar binding profiles (FIG. 48). All of the lead variants shown are within two-fold of the original murine monoclonal antibody.

[8] = biological target: T1, recombinant human PLVAP51-442 protein …; assay: competition ELISA on coated recombinant PLVAP; competitor biotinylated murine KFCC-GY4 at 0.3 µg/ml
Procedure: as §2, §3

Binder	Kd [1] [nM]	binding result [2]	IC50 [3] [µg/mL]	IC50 (ratio compared to GY5 mAb) [3]	IC50 [4] [µg/mL]	binding result (His-tagged human CEACAM6)	binding result [5]	Kd [6] [nM]	koff [6] [s⁻¹]	kon [6] [M⁻¹ s⁻¹]	IC50 [7] [µg/mL]	IC50 (ratio compared to GY4 mAb) [7]	IC50 [8] [µg/mL]
KFCC-GY5 monoclonal antibody (murine, hybridoma ATCC PTA-9964) (antibody, mouse IgG1, V domains shown, also called GY5 mAB; KFCC-GY5 mAb) VH: QVQLQQPGAELVRPGASVKLSCKASGYTFTSNYINWVKQRPGQGLEWIGNIYPSDGFTNYNQKFKDRATLTVDKSSSTAYMQLSSPTSEDSAVYYCTRNFDVWGAGTTVTVSS VL: DVVMTQTPLSLPVSLGDQASISCRSSQSLVHSNGNTYLQWYLQKPGQSPKLLIYTVSNRFSGVPDRFSGSGSGPDFTLKISRVEAEDLGVYFCSQSTHVPFTFGSGTKLEIK	41	binds	0.38	1	0.49	no binding	no binding	59.8	0.000414	6930	–	–	–
KFCC-GY4 monoclonal antibody (murine, hybridoma ATCC PTA-9963) (antibody, mouse IgG1, V domains shown, also called GY4 mAB; KFCC-GY4 mAb) VH: EVQLQQSGAEFVRSGASVKLSCTASGFNIKDYYIHWVKQRPEQGLEWIGWIDPENGDIEYAPKFQGKATMTADTSSNTAYLQFSSLTSEDTAVYYCLYQEGSWGQGTTLTVSS VL: not shown	60	–	–	–	–	no binding	no binding	464	0.00701	15100	1.82	1	0.98

The next lines start with the values.

Kd [1] [nM]	binding result [2]	IC50 [3] [µg/mL]	IC50 (ratio compared to GY5 mAb) [3]	IC50 [4] [µg/mL]	binding result (His-tagged human CEACAM6)	binding result [5]	Kd [6] [nM]	koff [6] [s⁻¹]	kon [6] [M⁻¹ s⁻¹]	IC50 [7] [µg/mL]	IC50 (ratio compared to GY4 mAb) [7]	IC50 [8] [µg/mL]	Binder
–	–	–	–	0.4	–	–	0.978	3.01e-05	30700	–	–	–	chimeric KFCC-GY5 antibody (CSR02) (antibody, human IgG4, V domains shown, also called Chimeric GY5; chimeric IgG4-GY5) VH: QVQLQQPGAELVRPGASVKLSCKASGYTFTSNYINWVKQRPGQGLEWIGNIYPSDGFTNYNQKFKDRATLTVDKSSSTAYMQLSSPTSEDSAVYYCTRNFDVWGAGTTVTVSS VL: DVVMTQTPLSLPVSLGDQASISCRSSQSLVHSNGNTYLQWYLQKPGQSPKLLIYTVSNRFSGVPDRFSGSGSGPDFTLKISRVEAEDLGVYFCSQSTHVPFTFGSGTKLEIK
–	–	0.43	1.13	–	–	–	–	–	–	–	–	–	humanized KFCC-GY5 antibody CSR02-VH4/VK3 (antibody, human IgG4, V domains shown, also called VH4/VK3 (GY5 variant); VH4/VK3 IgG4) VH: QVQLVQSGSELKKPGASVKVSCKASGYTFTSNYINWVRQAPGQGLEWIGNIYPSDGFTNYNQKFKDRVTITVDKSTSTAYMELSSLRSEDTAVYYCTRNFDVWGQGTTVTVSS VL: DVVMTQSPLSLPVTLGQPASISCRSSQSLVHSNGNTYLQWYLQKPGQSPQLLIYTVSNRFSGVPDRFSGSGSGPDFTLKISRVEAEDVGVYYCSQSTHVPFTFGQGTKLEIKR
–	–	–	–	–	–	–	406	0.00212	5210	–	–	0.8	chimeric KFCC-GY4 antibody (CSR01) (antibody, human IgG4, V domains shown, also called Chimeric GY4; chimeric IgG4-GY4) VH: EVQLQQSGAEFVRSGASVKLSCTASGFNIKDYYIHWVKQRPEQGLEWIGWIDPENGDIEYAPKFQGKATMTADTSSNTAYLQFSSLTSEDTAVYYCLYQEGSWGQGTTLTVSS VL: not shown
